What was measured:
MMP-2 = molecular target: T1, MMP-2 (Homo sapiens, UniProt P08253); experiment: Enzymatic digest of polymer by MMP-2, SDS-PAGE; type: biochemical; conditions: 1 mg/ml polymer, 10 nM and 40 nM MMP-2, 2-48 hours, room temperature
T1 sequence (P08253 110-660): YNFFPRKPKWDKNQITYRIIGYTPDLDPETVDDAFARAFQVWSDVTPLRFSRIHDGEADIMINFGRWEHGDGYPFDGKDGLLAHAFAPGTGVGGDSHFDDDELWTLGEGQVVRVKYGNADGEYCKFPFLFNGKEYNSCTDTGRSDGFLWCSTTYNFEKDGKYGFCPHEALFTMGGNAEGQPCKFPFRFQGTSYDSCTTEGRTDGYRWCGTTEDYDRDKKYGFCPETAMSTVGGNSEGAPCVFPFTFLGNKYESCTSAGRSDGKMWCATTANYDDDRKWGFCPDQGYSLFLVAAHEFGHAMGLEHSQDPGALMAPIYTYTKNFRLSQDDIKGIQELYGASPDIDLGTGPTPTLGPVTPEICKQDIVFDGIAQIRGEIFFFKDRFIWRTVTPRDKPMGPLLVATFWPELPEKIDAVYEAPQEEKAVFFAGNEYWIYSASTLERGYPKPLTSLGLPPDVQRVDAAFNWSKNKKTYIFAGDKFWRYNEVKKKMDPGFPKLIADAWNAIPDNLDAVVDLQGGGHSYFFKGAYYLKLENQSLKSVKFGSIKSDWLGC
Experimental: This buffer recipe is sourced from the Molecular Probes EnzChek Gelatinase/Collagenase Assay Kit (Invitrogen, Carlsbad, Calif.), which was used to confirm the activity of MMP-2 and MMP-9 prior to use. 2× Laemmli Buffer was supplemented with 5% β-mercaptoethanol and added 1:1 by volume to the polymer solutions, which were then placed in a PCR thermal cycler and heated to 95° C. for five minutes to denature the protein. 25 μl of each sample was added to 4-15% Bis-Tris precast PAGE gel and electrophoresis was performed at 200V until the dye front reached the bottom of the gel, approximately 30 minutes. Kaleidoscope protein standard was used as a molecular weight marker. Following electrophoresis, gels were stained with GelCode Blue (colloidal Coomassie formulation) following manufacturer's instructions for staining and destaining.
100 μl samples of each polymer were digested with a final concentration of 10 nM and 40 nM MMP-2 or MMP-9. MMP samples were incubated at room temperature for 2, 4, 12, 24, 36, and 48 hours and samples were run on PAGE gels and stained with GelCode Blue to visualize band patterns corresponding to protein degradation.
Additionally, this digestion is dependent on both time of exposure and concentration of MMP.

JHU-022 tumors = experiment: GDEPT (HSV-tk/GCV) efficacy study, tumor size and luciferase imaging; type: in vivo, nude mice; conditions: 4 wt % with virus + GCV
Experimental: In order to fully illustrate the potential of SELP as an injectable, in situ gel forming delivery system for the treatment of HNSCC solid tumors, a study was performed on the efficacy of this system using a GDEPT approach. The system chosen was herpes simplex virus thymidine kinase (HSV-tk) as the enzyme, and ganciclovir (GCV) as the prodrug. To accomplish this, a custom adenoviral construct was designed and used for this study. The construct contained genes which encode for HSV-tk and genes which encode for luciferase, a common reporter enzyme. This novel construct allowed both efficacy and biodistribution to be assessed simultaneously in vivo. Specifically, by combining these two genes in one virus, it becomes possible to track the location of transfection while simultaneously evaluating the efficacy of the treatment.
Appropriate controls were included. Luciferase expression was measured by injecting luciferin potassium salt intraperitoneally, and following appropriate time to allow distribution of luciferin the animals were imaged using a Xenogen IVIS100 imaging system (Caliper Life Sciences, Hopkinton, Mass.) which allows visualization of luciferase expression without sacrificing the animal. As a measure of efficacy the tumors were measured with calipers every 3 to 4 days. […]

[1] = 12 week subchronic toxicity study; type: in vivo, CD-1 immunocompetent mice
Experimental: Mice were anesthetized and maintained under anesthesia with 3% isofluorane in oxygen. After shaving and cleaning the injection site with 60% isopropanol, mice were subcutaneously injected in the right flank with 50 μl of solution using a 250 μl Hamilton syringe with a 26G needle. […] The injection site was gently clamped for 10 seconds to prevent leakage, after which mice were returned to their cages. For consistency, the day of viral injection was defined as day 0.
For treatment groups, a suspension of 1 mg GCV (Sigma Aldrich, St. Louis, Mo.) per ml of 0.9% physiological saline was prepared and sterilized through a 0.22 μm filter. Each day, animal weights were recorded, injection sites cleaned with 60% isopropanol, and mice injected i.p. with 1 mg/ml GCV suspension through a 26G needle sufficient for a total dose of 25 mg/kg body weight. Average dosing volume for these studies was approximately 0.6 ml. Mice were injected daily for the first four weeks of the 12 week recovery study, and for the entirety of the 1, 2, and 4 week studies.
The results for the 12 week subchronic toxicity study (FIG. 18) reveal many interesting points about SELP and its ability to improve the Ad.HSVtk/GCV toxicity profile. […]

B1: SELP815K: silk-elastin-like protein polymer, longer silk units, fifteen elastin units, lysine elastin unit; monomer repeated 6 times (SEQ ID NO. 21) (protein)
chain: MDPVVLQRRDWENPGVTQLNRLAAHPPFASDPMGAGSGAGAGSGAGAGSGVGVPGVGVPGVGVPGVGVPGKGVPGVGVPGVGVPGVGVPGVGVPGVGVPGVGVPGVGVPGVGVPGVGVPGVGVPGVGVPGAGAGSGAGAGSGAGAGSGAGAGSGAGAGSGAGAGAGSGAGAGSGAGAGSGVGVPGVGVPGVGVPGVGVPGKGVPGVGVPGVGVPGVGVPGVGVPGVGVPGVGVPGVGVPGVGVPGVGVPGVGVPGVGVPGAGAGSGAGAGSGAGAGSGAGAGSGAGAGSGAGAGAGSGAGAGSGAGAGSGVGVPGVGVPGVGVPGVGVPGKGVPGVGVPGVGVPGVGVPGVGVPGVGVPGVGVPGVGVPGVGVPGVGVPGVGVPGVGVPGAGAGSGAGAGSGAGAGSGAGAGSGAGAGSGAGAGAGSGAGAGSGAGAGSGVGVPGVGVPGVGVPGVGVPGKGVPGVGVPGVGVPGVGVPGVGVPGVGVPGVGVPGVGVPGVGVPGVGVPGVGVPGVGVPGAGAGSGAGAGSGAGAGSGAGAGSGAGAGSGAGAGAGSGAGAGSGAGAGSGVGVPGVGVPGVGVPGVGVPGKGVPGVGVPGVGVPGVGVPGVGVPGVGVPGVGVPGVGVPGVGVPGVGVPGVGVPGVGVPGAGAGSGAGAGSGAGAGSGAGAGSGAGAGSGAGAGAGSGAGAGSGAGAGSGVGVPGVGVPGVGVPGVGVPGKGVPGVGVPGVGVPGVGVPGVGVPGVGVPGVGVPGVGVPGVGVPGVGVPGVGVPGVGVPGAGAGSGAGAGSGAGAGSGAGAGSGAGAGSGAGAMDPGRYQDLRSHHHHHH
modifications: monomer repeated 6 times; Hybrid of Homo sapein and Bombyx mori
In the case of B1, the “digestion by MMP-2” value (MMP-2) is reported as “is not”, the “tumor regrowth / recovery observation” value (JHU-022 tumors; out to day 33) is reported as “full recovery, with no evidence of a tumor out to day 33” and the “reduction in tumor size compared to virus in saline” value (JHU-022 tumors; over 33 days) is reported as 3 fold. For the same molecule, the “toxicity conclusion of the statistical comparison” value ([1]; 12 week study, comparison named in the table line) was “SELP itself is not toxic in” and the “p (ANOVA and Bonferroni post-test) Vs Control” value ([1]; 12 week subchronic toxicity study) was “p > .05”.

Reference: US10253089B2, “Matrix metalloproteinase cleavable protein polymers for cancer gene therapy” (The University of Utah Research Foundation, priority 2012, dated 2019)
